According to paper PMC4676284 (mBio, 2015):

Molecular target: the molecule itself
Assay: crystal structure

Protein	stoichiometry N
Bartonella birtlesii strain LL-WM9 TrwG, soluble C-terminal periplasmic domain (domain or fragment) QPAPTPLVLRVDNTTGAVDVISVMREHETSYGEVVDRYWLNQYVLNRETYDYDTIQLNYDTTALLSTAAVQQEFYKIYEGEDARDKVLSNKARITVKVRSIQPNGRGQATVRFTTQQHDSTGAVGVKQHQIATIGYTYVGAPMKSSDRLLNPLGFQVTSYRTDPEILLNN	2
Bartonella grahamii strain as4aup VirB8, soluble C-terminal periplasmic domain (domain or fragment) ALTPLKTVEPFVIRVDNSTGIIDTVSALKESPNDYDEAITRYFASQYVRAREGFQASEAENNFRLVSLLSSPKEQNRFGKWYAGNNPESPQNIYHNMIATVTIKSISFISKDLIQVRYYKTVRDFNEKENISHWISILNFSYVNAHISTSDRLINPLGFQVSEYRSDPEVIK	2
Bartonella grahamii strain as4aup TrwG, soluble C-terminal periplasmic domain (domain or fragment) QPAPTPLVLRVDNTTGAVDVISVMREHETSYGEVVDRYWLNQYVLNRENYDYDTIQLNYDTTALLSAASVQQEYYKIYDGENARDKVLSNKARITVKVRSIQLNGLGQATVRFTTQQLDSSGATTGPKQHQIATIGYTYVGAPMKSSDRLLNPLGFQITSYRSDPEILLND	2
